In article PMC9352680, “A comprehensive thermodynamic model for RNA binding by the Saccharomyces cerevisiae Pumilio protein PUF4”:
Where a chain is given by its changes, count along the chain named. Names may count otherwise.

T1: PUF4 RNA-binding domain (Saccharomyces cerevisiae, UniProt P25339 537-888)
T1 sequence: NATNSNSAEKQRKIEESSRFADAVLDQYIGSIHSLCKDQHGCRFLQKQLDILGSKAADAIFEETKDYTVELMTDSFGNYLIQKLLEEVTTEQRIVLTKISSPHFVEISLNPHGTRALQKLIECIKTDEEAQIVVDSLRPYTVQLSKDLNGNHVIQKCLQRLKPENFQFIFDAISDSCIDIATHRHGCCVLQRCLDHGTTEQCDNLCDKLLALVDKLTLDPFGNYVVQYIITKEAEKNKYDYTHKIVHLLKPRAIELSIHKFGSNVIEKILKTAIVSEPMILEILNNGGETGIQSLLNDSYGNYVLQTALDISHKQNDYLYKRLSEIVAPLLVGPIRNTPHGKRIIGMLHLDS

B1: Ie_S4_P5E.1_K5.1_C5.1_H5.1_A5.1_F5.1_[+9TCTC]_T5.1 (ssRNA)
RNA: UUUGACAACUGAUCGUUCUUUCUUGUAUUAUUUCUCAUUCUUUCUCGAUCAGUUGUCUUU
B2: Ie_S4_P5E.1_K5.1_C5.1_H5.1_A5.1_F5.1_[+9CTCTC]_T5.1 (ssRNA)
RNA: UUUGACAACUGAUCGUUCUUUCUUGUAUUAUUCUCUCAUUCUUUCUCGAUCAGUUGUCUUU
B3: Ie_S4_P5E.1_K5.1_C5.1_H5.1_A5.1_F5.1_[+9CCTCT]_T5.1 (ssRNA)
RNA: B2 RNA with U34C, C35U, U36C, C37U
B4: Ie_S4_P5E.1_K5.1_C5.1_H5.1_A5.1_F5.1_[+10TT]_T5.1 (ssRNA)
RNA: UUUGACAACUGAUCGUUCUUUCUUGUAUUAUUAUUUUCUUUCUCGAUCAGUUGUCUUU
B5: Ie_S4_P5E.1_K5.1_C5.1_H5.1_A5.1_F5.1_[+10TCC]_T5.1 (ssRNA)
RNA: UUUGACAACUGAUCGUUCUUUCUUGUAUUAUUAUCCUUCUUUCUCGAUCAGUUGUCUUU
B6: Ie_S4_P5E.1_K5.1_C5.1_H5.1_A5.1_F5.1_[+10TCTCT]_T5.1 (ssRNA)
RNA: B2 RNA with C33A, A38U
B7: Ib_S2_P3E.1_K3.1_C3.1_H3.1_[A4T]_A3.1_[A6T]_F3.1_T3.1 (ssRNA)
RNA: UUUGAUUAAUAUGAUAUCGUUCUUUCUUGUUUUUAUUCUUUCUCGAUAUCAUAUUAAUCUUU
B8: Ic_S2_P3E.1_K3.1_C3.1_H3.1_A3.1_[T5G]_[A6T]_F3.1_T3.1 (ssRNA)
RNA: B7 RNA with U31A, U32G
B9: Ic_S2_P3E.1_K3.1_C3.1_H3.1_A3.1_[T5C]_[A6G]_F3.1_T3.1 (ssRNA)
RNA: B7 RNA with U31A, U32C, U33G
B10: Ia_S1_P3E.1_K3.1_C3.1_H3.1_[T1C]_A3.1_F3.1_T3.1 (ssRNA)
RNA: UCUCUUCGUAUAUAUCUCUU
B11: Ic_S2_P3E.1_K3.1_C3.1_H3.1_A3.1_[A6C]_F3.1_T3.1 (ssRNA)
RNA: B7 RNA with U31A, U33C
B12: Ic_S2_P3E.1_K3.1_C3.1_H3.1_A3.1_[T5C]_[A6C]_F3.1_T3.1 (ssRNA)
RNA: B7 RNA with U31A, U32C, U33C
B13: Ib_S2_P3E.1_K3.1_C3.1_H3.1_A3.1_[T5C]_[A6T]_F3.1_T3.1 (ssRNA)
RNA: B7 RNA with U31A, U32C
B14: Ib_S2_P3E.1_K3.1_C3.1_H3.1_A3.1_[T5A]_[A6C]_F3.1_T3.1 (ssRNA)
RNA: B7 RNA with U31A, U32A, U33C
B15: Ic_S2_P3E.1_K3.1_C3.1_H3.1_A3.1_[T5A]_[A6T]_F3.1_T3.1 (ssRNA)
RNA: B7 RNA with U31A, U32A
B16: Ib_S2_P4E.1_K4.1_C4.1_H4.1_A4.1_F4.1_[T8G]_[A9G]_T4.1 (ssRNA)
RNA: UUUGAUUAAUAUGAUAUCGUUCUUUCUUGUAUAUGGUUCUUUCUCGAUAUCAUAUUAAUCUUU
B17: Ic_S2_P4E.1_K4.1_C4.1_H4.1_A4.1_F4.1_[T8G]_[A9C]_T4.1 (ssRNA)
RNA: B16 RNA with G36C
B18: Ic_S2_P4E.1_K4.1_C4.1_H4.1_A4.1_F4.1_[T8G]_[A9T]_T4.1 (ssRNA)
RNA: B16 RNA with G36U
B19: Ic_S2_P4E.1_K4.1_C4.1_H4.1_A4.1_F4.1_[T8C]_[A9G]_T4.1 (ssRNA)
RNA: B16 RNA with G35C
B20: Ic_S2_P4E.1_K4.1_C4.1_H4.1_A4.1_F4.1_[T8C]_[A9C]_T4.1 (ssRNA)
RNA: B16 RNA with G35C, G36C
B21: Ib_S2_P4E.1_K4.1_C4.1_H4.1_A4.1_F4.1_[T8A]_[A9G]_T4.1 (ssRNA)
RNA: B16 RNA with G35A
B22: Ic_S2_P3E.1_K3.1_C3.1_H3.1_A3.1_[A6T]_F3.1_T3.1 (ssRNA)
RNA: B7 RNA with U31A
B23: Ib_S2_P4E.1_K4.1_C4.1_H4.1_A4.1_F4.1_[T8A]_[A9C]_T4.1 (ssRNA)
RNA: B16 RNA with G35A, G36C
B24: Ib_S2_P4E.1_K4.1_C4.1_H4.1_[T1C]_A4.1_F4.1_[T8A]_T4.1 (ssRNA)
RNA: B16 RNA with U28C, G35A, G36A
B25: Ib_S2_P4E.1_K4.1_C4.1_H4.1_[G2C]_A4.1_F4.1_[T8C]_T4.1 (ssRNA)
RNA: B16 RNA with G29C, G35C, G36A
B26: Ib_S2_P4E.1_K4.1_C4.1_H4.1_[A4G]_A4.1_F4.1_[T8C]_T4.1 (ssRNA)
RNA: B16 RNA with A31G, G35C, G36A
B27: Ib_S2_P4E.1_K4.1_C4.1_H4.1_[A4C]_A4.1_F4.1_[T8C]_T4.1 (ssRNA)
RNA: B16 RNA with A31C, G35C, G36A
B28: Ib_S2_P4E.1_K4.1_C4.1_H4.1_[A4T]_A4.1_F4.1_[T8C]_T4.1 (ssRNA)
RNA: B16 RNA with A31U, G35C, G36A
B29: Ib_S2_P4E.1_K4.1_C4.1_H4.1_[A4G]_A4.1_F4.1_[T8A]_T4.1 (ssRNA)
RNA: B16 RNA with A31G, G35A, G36A
B30: Ib_S2_P4E.1_K4.1_C4.1_H4.1_[A4T]_A4.1_F4.1_[T8A]_T4.1 (ssRNA)
RNA: B16 RNA with A31U, G35A, G36A
B31: Ib_S2_P4E.1_K4.1_C4.1_H4.1_[T1C]_A4.1_F4.1_[A9C]_T4.1 (ssRNA)
RNA: B16 RNA with U28C, G35U, G36C
B32: Ib_S2_P4E.1_K4.1_C4.1_H4.1_[T1G]_A4.1_F4.1_[A9T]_T4.1 (ssRNA)
RNA: B16 RNA with U28G, G35U, G36U
B33: Ia_S2_P4E.1_K4.1_C4.1_H4.1_A4.1_F4.1_[T8C]_T4.1 (ssRNA)
RNA: B16 RNA with G35C, G36A
B34: Ib_S2_P4E.1_K4.1_C4.1_H4.1_[T1A]_A4.1_F4.1_[A9T]_T4.1 (ssRNA)
RNA: B16 RNA with U28A, G35U, G36U
B35: Ib_S2_P4E.1_K4.1_C4.1_H4.1_[G2T]_A4.1_F4.1_[A9G]_T4.1 (ssRNA)
RNA: B16 RNA with G29U, G35U
B36: Ib_S2_P4E.1_K4.1_C4.1_H4.1_[G2A]_A4.1_F4.1_[A9G]_T4.1 (ssRNA)
RNA: B16 RNA with G29A, G35U
B37: Ib_S2_P4E.1_K4.1_C4.1_H4.1_[G2A]_A4.1_F4.1_[A9C]_T4.1 (ssRNA)
RNA: B16 RNA with G29A, G35U, G36C
B38: Ib_S2_P4E.1_K4.1_C4.1_H4.1_[G2C]_A4.1_F4.1_[A9T]_T4.1 (ssRNA)
RNA: B16 RNA with G29C, G35U, G36U
B39: Ib_S2_P4E.1_K4.1_C4.1_H4.1_[G2T]_A4.1_F4.1_[A9T]_T4.1 (ssRNA)
RNA: B16 RNA with G29U, G35U, G36U
B40: Ib_S2_P4E.1_K4.1_C4.1_H4.1_[T3C]_A4.1_F4.1_[A9C]_T4.1 (ssRNA)
RNA: B16 RNA with U30C, G35U, G36C
B41: Ib_S2_P4E.1_K4.1_C4.1_H4.1_[T3C]_A4.1_F4.1_[A9T]_T4.1 (ssRNA)
RNA: B16 RNA with U30C, G35U, G36U
B42: Ib_S2_P4E.1_K4.1_C4.1_H4.1_[A4G]_A4.1_F4.1_[A9G]_T4.1 (ssRNA)
RNA: B16 RNA with A31G, G35U
B43: Ib_S2_P4E.1_K4.1_C4.1_H4.1_[A4T]_A4.1_F4.1_[A9G]_T4.1 (ssRNA)
RNA: B16 RNA with A31U, G35U
B44: Ic_S2_P4E.1_K4.1_C4.1_H4.1_A4.1_F4.1_[T8A]_T4.1 (ssRNA)
RNA: B16 RNA with G35A, G36A
B45: Ib_S2_P4E.1_K4.1_C4.1_H4.1_[A4G]_A4.1_F4.1_[A9C]_T4.1 (ssRNA)
RNA: B16 RNA with A31G, G35U, G36C
B46: Ib_S2_P4E.1_K4.1_C4.1_H4.1_[A4C]_A4.1_F4.1_[A9C]_T4.1 (ssRNA)
RNA: B16 RNA with A31C, G35U, G36C
B47: Ib_S2_P4E.1_K4.1_C4.1_H4.1_[A4G]_A4.1_F4.1_[A9T]_T4.1 (ssRNA)
RNA: B16 RNA with A31G, G35U, G36U
B48: Ib_S2_P4E.1_K4.1_C4.1_H4.1_A4.1_[T5A]_F4.1_[T8C]_T4.1 (ssRNA)
RNA: B16 RNA with U32A, G35C, G36A
B49: Ib_S2_P4E.1_K4.1_C4.1_H4.1_A4.1_[T5C]_F4.1_[T8A]_T4.1 (ssRNA)
RNA: B16 RNA with U32C, G35A, G36A
B50: Ib_S2_P4E.1_K4.1_C4.1_H4.1_A4.1_[T5A]_F4.1_[T8A]_T4.1 (ssRNA)
RNA: B16 RNA with U32A, G35A, G36A
B51: Ib_S2_P4E.1_K4.1_C4.1_H4.1_A4.1_[A6C]_F4.1_[T8C]_T4.1 (ssRNA)
RNA: B16 RNA with A33C, G35C, G36A
B52: Ic_S2_P4E.1_K4.1_C4.1_H4.1_A4.1_[A6T]_F4.1_[T8C]_T4.1 (ssRNA)
RNA: B16 RNA with A33U, G35C, G36A
B53: Ib_S2_P4E.1_K4.1_C4.1_H4.1_A4.1_[A6C]_F4.1_[T8A]_T4.1 (ssRNA)
RNA: B16 RNA with A33C, G35A, G36A
B54: Ib_S2_P4E.1_K4.1_C4.1_H4.1_A4.1_[A6T]_F4.1_[T8A]_T4.1 (ssRNA)
RNA: B16 RNA with A33U, G35A, G36A
B55: Ia_S2_P4E.1_K4.1_C4.1_H4.1_A4.1_F4.1_[A9C]_T4.1 (ssRNA)
RNA: B16 RNA with G35U, G36C
B56: Ic_S2_P4E.1_K4.1_C4.1_H4.1_A4.1_[T7G]_F4.1_[T8C]_T4.1 (ssRNA)
RNA: B16 RNA with U34G, G35C, G36A

Biological target: T1, PUF4 RNA-binding domain
Experiment: Mg; RNA-MaP; 20 mM Na-HEPES pH 7.4, 30 mM KOAc, 0.75 mM MgCl2, 0.1% Tween-20, 5% glycerol, 0.1 mg/mL BSA, 2 mM DTT; 25 C; 0.0125-409.6 nM protein
Details: tags: N-His6-TEV cleaved; C-SNAP kept, Cy3B-labelled; label: tethered on chip by stalled RNA polymerase

Binder | Kd
B1 | 18 nM
B2 | 25 nM
B3 | 17.8 nM
B4 | 2.52 nM
B5 | 5.62 nM
B6 | 3.65 nM
B7 | 576 nM
B8 | 181 nM
B9 | 33.1 nM
B10 | 1180 nM
B11 | 8.48 nM
B12 | 10.6 nM
B13 | 14.8 nM
B14 | 66 nM
B15 | 72.2 nM
B16 | 58.6 nM
B17 | 15.4 nM
B18 | 5.99 nM
B19 | 7.89 nM

Binder | Kd
B20 | 8.44 nM
B21 | 9.03 nM
B22 | 11.4 nM
B23 | 6.86 nM
B24 | 451 nM
B25 | 848 nM
B26 | 16.2 nM
B27 | > 2300 nM
B28 | 1250 nM
B29 | 3.78 nM
B30 | 122 nM
B31 | 607 nM
B32 | 1380 nM
B33 | 7.94 nM
B34 | 1380 nM
B35 | > 2300 nM
B36 | 203 nM
B37 | 200 nM
B38 | 983 nM

Binder | Kd
B39 | 1670 nM
B40 | 1070 nM
B41 | 957 nM
B42 | 28.9 nM
B43 | 63.2 nM
B44 | 2.04 nM
B45 | 11.9 nM
B46 | 624 nM
B47 | 5.78 nM
B48 | 58.5 nM
B49 | 2.52 nM
B50 | 13.5 nM
B51 | 30.6 nM
B52 | 104 nM
B53 | 10.7 nM
B54 | 17.8 nM
B55 | 2.83 nM
B56 | 42 nM
